This data set concerns the molecule itself. Description: SEC-MALS.

Numbering of substitutions follows the chain as printed. Names and notes keep the numbering of the source.

B1: Lip-VIN3VEL (residues 500-603), wild type (domain or fragment)
chain: GKQGGNKRFKSRTVSLNEKPEINNAANGVGDKDLGHIVKTIRCLEEEGHIDKSFRERFLTWYSLRATHREVRVVKIFVETFMEDLSSLGQQLVDTFSESILSKR
Turning to B1, the binding result is recorded as “binds”.

B2: Lip-VIN3VEL (residues 500-603) I575T (domain or fragment)
chain: B1 chain with I76T
With B2, the binding result is reported as “binds”.

The values above are taken from article doi:10.1101/2024.02.15.580496 (bioRxiv, 2024).
